Experimental findings from US5569830 are described below.

In this experiment the target is polygalacturonase (endo-PG) from the culture filtrate of Botrytis cinerea DEL 11 (Botrytis cinerea DEL 11).

B1: pear polygalacturonase inhibitor protein (PGIP) purified from Pyrus communis L. cv Bartlett fruit (protein)
chain: DLCNPDDKKVLLQIKKAFGDPYVLASWKSDTDCCDWYCVTCDSTTNRINSLTIFAGQVSGQIPALVGDLPYLETLEFHKQPNLTGPIQPAIAKLKGLKSLRLSWTNLSGSVPDFLSQLKNLTFLDLSFNNLTGAIPSSLSELPNLGALRLDRNKLTGHIPISFGQFIGNVPDLYLSHNQLSGNIPTSFAQMDFTSIDLSRNKLEGDASVIFGLNKTTQIVDLSRNLLEFNLSKVEFPTSLTSVDINHNKIYGSIPVEFTQLNFQFLNVSYNRLCGQIPVGGKLQSFDEYSYFHNRCLCGAPLPSCK
modifications: glycoprotein: N-linked glycans (seven potential N-glycosylation sites; occupied sites not determined)
The molecule B1 registered a release of reducing sugars from sodium polypectate (reducing sugar assay) (times (against the tomato PGIPs)) of 20.
